Assays:
Details in all cases: EMSA: 0.1 ng 32P probe, 15 ul, 30 min at 25 C (stated for GadE/RcsBD56E), 6% native PAGE; H-NS: 100-200 ng PCR fragment plus pBR322 digest, 15 min room …
[1] = target: T1, H-NS-His6 (Escherichia coli) (UniProt P0ACF8); assay: competitive EMSA
T1 sequence: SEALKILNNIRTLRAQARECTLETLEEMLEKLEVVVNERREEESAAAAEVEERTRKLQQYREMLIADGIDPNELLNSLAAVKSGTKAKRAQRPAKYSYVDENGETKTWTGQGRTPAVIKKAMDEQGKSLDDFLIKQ

[2] = target: T2, His6-RcsBD56E;GadE-His6 D56E (Escherichia coli;Escherichia coli) (UniProt P0DMC7+P63204); assay: EMSA
T2 sequence 1: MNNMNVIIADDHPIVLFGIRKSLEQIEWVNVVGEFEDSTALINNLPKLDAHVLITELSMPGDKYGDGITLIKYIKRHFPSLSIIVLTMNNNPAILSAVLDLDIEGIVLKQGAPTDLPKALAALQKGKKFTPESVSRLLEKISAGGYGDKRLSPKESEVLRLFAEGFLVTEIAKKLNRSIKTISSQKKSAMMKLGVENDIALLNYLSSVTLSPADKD
T2 sequence 2: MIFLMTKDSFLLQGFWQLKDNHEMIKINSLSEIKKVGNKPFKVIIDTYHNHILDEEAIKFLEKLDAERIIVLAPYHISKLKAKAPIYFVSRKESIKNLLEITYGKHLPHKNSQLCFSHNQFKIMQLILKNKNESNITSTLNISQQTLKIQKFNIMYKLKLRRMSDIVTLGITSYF

[3] = target: T3, Strep-AdiY (Escherichia coli) (UniProt P33234); assay: EMSA
T3 sequence: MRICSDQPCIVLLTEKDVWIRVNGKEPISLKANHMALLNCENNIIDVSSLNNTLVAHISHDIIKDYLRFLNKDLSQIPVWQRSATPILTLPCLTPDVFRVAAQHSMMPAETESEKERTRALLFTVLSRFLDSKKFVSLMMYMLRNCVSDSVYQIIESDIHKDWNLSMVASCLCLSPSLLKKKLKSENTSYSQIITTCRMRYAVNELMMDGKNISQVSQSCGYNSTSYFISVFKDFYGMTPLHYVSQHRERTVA

[4] = target: T4, HdfR-His6 (Escherichia coli) (UniProt P0A8R9); assay: EMSA
T4 sequence: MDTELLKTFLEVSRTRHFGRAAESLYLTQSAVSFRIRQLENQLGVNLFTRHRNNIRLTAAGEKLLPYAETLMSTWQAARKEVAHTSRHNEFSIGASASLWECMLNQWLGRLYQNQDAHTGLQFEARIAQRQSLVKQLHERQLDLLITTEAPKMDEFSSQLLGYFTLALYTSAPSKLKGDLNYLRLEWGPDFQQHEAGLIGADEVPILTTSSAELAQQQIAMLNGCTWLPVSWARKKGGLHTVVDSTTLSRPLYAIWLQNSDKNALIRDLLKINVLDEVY

Sequence	binding [1]	binding [2]	binding [3]	binding [4]
AATGATACTTGTCTGAAAAACAGATTTACGACGATATAAAATAATAATACTTATATGTTCGCTGATTTTAAGCACCGAGACTATCCGGTCTTTTACCAAATAATGAAGAATAATCCCTCCCTGGAAGATAATTGTAAAAAACAACAGCATAAGAATTAATCTTAGGATAAATTTTTATTTATCATGGCCTTTTGAACGCTGAAAAGTAGCGCTCTGCAAAGTAAACCCCGCTATAGTTATGCTATGCATTTGTCTTTAATGATATCTCGTCATTATATTAACAGGATGAAATTATCATTA (double strand) [yhiM promoter]	binds	binds		
ATCCTGCACGCTCCTAATTCTTTGACCGAGCTAGTTATGGCGCGGAGTATTAGTTACGCTTGACAGAGTGTAAAACAAAACATTTAAATCATAACGACAAATAATTTTGCGGAGAGCACTGTGGATACGGAATTGTTAAAAACTTTCCTGGAAGTTAGCCGAACGCGTCACTTTGGTCGAGCGGCTGAATCGCTCTATCTGACCCAGTCAGCAGTGAGCTTTCGAATCAGACAACTGGAAAATCAACTGGGTGTGAACCTT (double strand) [hdfR promoter]	binds			
ATGCCAAAAACGCGTCTAAGAATGCAGTCGATTTAATAAAAATTTCCTAATTGCAGTATCTGATGCATCTGTAACTCATTGTATTGAAATAAAAATATCTGATTTTGATATTTTCCATCAACATGACATATACAGAAAACCAGGTTATAACCTCAGTGTCG (double strand) [hdeABD promoter]			no binding	
CGCATAATTTCCAGCAATCTTTGTTTATTTGCAATTATTTTTGTTGGGCTTTTTGTAGGTTATTTGTACAGCAAAATGGCGCTTGTACATCTATTTCCCCCAATGCAGGATGATAAATATCACGGGAGAATAGAGAATCATCAATCAGGTAAGAGTCTGGAATTTCACACTGTACCCTTTATACTGCCCT (double strand) [rcsD promoter]	binds			
GAATAAAAATAGATTTTATGTACTTTTAAAACAATGCACTATATTATGGGGTGATGGATATTCATGTCACGCCCCAAAATTAACTGAGTTCACCTAAACAGAAAGGATATAAACATCAGACAGGTTTACGTTACTATCAGGCATATCACCTCAGAATCAGATGAAAACTATAAAGAAATATCTATTATGGTTTTAA (double strand) [slp-dctR promoter]	binds		no binding	
GGTCGCTCCTTGCCTGAAGTCATCCTTCAATACGTTAAGGGCGAAATCATACCGTGGGGCAATGAGTTATTACGGGCGTTTATTGCGAAGGGAGGGTGACGAAATGCACAGAAAACAAAA (double strand) [aslB promoter]		binds	no binding	no binding
TCGTTATGCAGCGATATTTTTTGCTGTTCATGATAAATATCGAATGAACGACGAATGAGGATCACCGAGCAGACATGAGTCATGATTATCCCTTATATTTCATACTGCGATTATTTCAATTTCAGTATACTAATGAAATGATGCCAGACTGTTTCTTAGCGCAAAAACTGCCAGATTTGGTAGGACCAAAATTTATCCACAAAGTAGTTTTGCATAACAGTTAATTGATAATAAGTAAATGCAGCACGAATATATTTTCGCACAGCGTATAGCTTA (double strand) [gadW promoter]	binds			
TGGCCTTAGGCCTTTTGAGTATGGCAACGTTTTCATAAAAATTGCTGCAAACAAAAATGTCATACTTTTTGCGCGGCCCCACCCCGCGCTTTTTTTTGCCTGTTATTTATCCTGTAAAAAAATATGTACATGAGAAATTACTATAAAAATTTGTACTATTAGTAAAAC (double strand) [adiY promoter]	binds			
TTATATATCCATGTTGGCGATAATCCCTTTGTATGTACTGTGCATCATCGCTATTACAAATCCTAATAATTCATTTCCACACAGGATAAGTAGATGAAGAAAAAAATTGAATC (double strand) [ydeP promoter]	binds			
TTGCTCATGCAAAGACTAACAATCCATTAAAATAGTAAGTGCTCCGGACAATTTTCCATGGATTATTTTCTGAACATTTTTCTTTGGCAAAGATGATGAATTTTGATGGTAAGGAATATTACTTCTGGTTCTCAGTAAAATCCTTTCGTAATACTATGTAATCAAGAAGTTTATGGCTGGTAAAAATAACGTCTTGCATTCACCAATAATATGTAAATAAACCCATCTATAGATGGTAAAAATAGGTTGTGGCAATTATCATTGCATCATTCCCTTTTCGAATG (double strand) [cadC promoter]	binds			

Source: paper PMC2984483
